Results on 2 proteins are retold here after publication PMC11984658 (Journal of structural biology, 2024).

The series “SEC-MALS” concerns the molecule itself. Briefly: SEC-MALS. (In general: SEC sorts molecules by how far they enter the pores of the column.)
The series “SAXS” concerns the molecule itself. The series is described as follows: SAXS.

B1: RAD52(1–212) (domain or fragment, human, UniProt P43351 1-212, looked up)
chain: MSGTEEAILGGRDSHPAAGGGSVLCFGQCQYTAEEYQAIQKALRQRLGPEYISSRMAGGGQKVCYIEGHRVINLANEMFGYNGWAHSITQQNVDFVDLNNGKFYVGVCAFVRVQLKDGSYHEDVGYGVSEGLKSKALSLEKARKEAVTDGLKRALRSFGNALGNCILDKDYLRSLNKLPRQLPLEVDLTKAKRQDLEPSVEEARYNSCRPNM
A word on the stoichiometry N: it is a count of units in the complex or per binding partner. In the case of B1, the entries for the “stoichiometry N” value in the series “SEC-MALS” and in “SAXS” were 9.7 subunits and 10 subunits, respectively.

B2: RAD52(1–303) (domain or fragment, human, UniProt P43351 1-303, looked up)
chain: MSGTEEAILGGRDSHPAAGGGSVLCFGQCQYTAEEYQAIQKALRQRLGPEYISSRMAGGGQKVCYIEGHRVINLANEMFGYNGWAHSITQQNVDFVDLNNGKFYVGVCAFVRVQLKDGSYHEDVGYGVSEGLKSKALSLEKARKEAVTDGLKRALRSFGNALGNCILDKDYLRSLNKLPRQLPLEVDLTKAKRQDLEPSVEEARYNSCRPNMALGHPQLQQVTSPSRPSHAVIPADQDCSSRSLSSSAVESEATHQRKLRQKQLQQQFRERMEKQQVRVSTPSAEKSEAAPPAPPVTHSTPVT
Consider B2, for which the “stoichiometry N” value in the series “SEC-MALS” is 9.5 subunits.
